Laboratory results taken from article PMC7586039.

What follows are substances tested against HPV16 pseudovirions (human papillomavirus type 16) (UniProt P03101).

With “RTD-4 (from UniProt P82270 65-76) (peptide)” as the substance, how does the IC50 of inhibition of HPV16 PsV infection of HeLa cells (PsV pretreated with the defensin) read?
Its IC50 of inhibition of HPV16 PsV infection of HeLa cells (PsV pretreated with the defensin) is 101 µM.

α-defensin HD5 (peptide) was tested. Which IC50 of inhibition of HPV16 PsV infection of HeLa cells (PsV pretreated with the defensin) did it give?
Its IC50 of inhibition of HPV16 PsV infection of HeLa cells (PsV pretreated with the defensin) is 26 µM.

How did the IC50 of inhibition of HPV16 PsV infection of HeLa cells (PsV pretreated with the defensin) turn out when “Rhesus Theta Defensin-1 (from UniProt P82270 65-76; P82271 65-76) (peptide)” was run?
Its IC50 of inhibition of HPV16 PsV infection of HeLa cells (PsV pretreated with the defensin) is 14 µM.
